Drawing on patent publication US20180051059A1, this text covers β-globin transcription in G1E cells (RT-qPCR) for one substance.

Bounds are passed on as bounds.

For this assay, the target named is endogenous Ldb1 complexes at the LCR (in G1E cells) (UniProt P70662). As to the kind of experiment: cell-based or functional assay.
UniProt P70662, sequence (P70662 2-411 limits assumed, one chain of several): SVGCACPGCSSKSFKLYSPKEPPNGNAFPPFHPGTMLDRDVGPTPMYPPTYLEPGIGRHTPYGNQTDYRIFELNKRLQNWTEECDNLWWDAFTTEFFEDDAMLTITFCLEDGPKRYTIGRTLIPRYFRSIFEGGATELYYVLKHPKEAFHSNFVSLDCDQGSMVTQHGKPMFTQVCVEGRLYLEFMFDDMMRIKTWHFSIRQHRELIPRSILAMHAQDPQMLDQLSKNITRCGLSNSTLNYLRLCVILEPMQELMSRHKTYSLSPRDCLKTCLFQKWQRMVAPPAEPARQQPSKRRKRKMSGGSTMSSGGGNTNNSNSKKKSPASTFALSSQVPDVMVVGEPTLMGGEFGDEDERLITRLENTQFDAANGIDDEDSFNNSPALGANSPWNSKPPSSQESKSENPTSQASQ

Regarding “P-Ldb1 (P-ZF, zinc finger protein targeting the β-major promoter, fused to full length Ldb1)”, the β-globin transcription in G1E cells (RT-qPCR) is above 1000 fold.
